Data reported in patent US6476188.
Positions count from the first letter of the chain named.

B1: recombinant tau mutant hamster CK1ε (Arg178Cys) with N-terminal S•Tag and His-Tag fusions, captured on S-protein agarose (protein)
chain: MELRVGNKYRLGRKIGSGSFGDIYLGANIASGEEVAIKLECVKTKHPQLHIESKFYKMMQGGVGIPSIKWCGAEGDYNVMVMELLGPSLEDLFNFCSRKFSLKTVLLLADQMISRIEYIHSKNFIHRDVKPDNFLMGLGKKGNLVYIIDFGLAKKYRDARTHQHIPYRENKNLTGTACYASINTHLGIEQSRRDDLESLGYVLMYFNLGSLPWQGLKAATKRQKYERISEKKMSTPIEVLCKGYPSEFSTYLNFCRSLRFDDKPDYSYLRQLFRNLFHRQGFSYDYVFDWNMLKFGAARNPEDVDRERREHEREERMGQLRGSATRALPPGPPTGATANRLRSAAEPVASTPASRIQQAGNTSPRAISRADRERKVSMRLHRGAPANVSSSDLTGRQEVSRISASQTSVPFDHLGK
B2: DOUBLETIME protein (DBT), Drosophila, in vitro translated from dbt cDNA P12, 35S-labeled (protein)
chain: MELRVGNKYRLGRKIGSGSFGDIYLGTTINTGEEVAIKLECIRTKHPQLHIESKFYKTMQGGIGIPRIIWCGSEGDYNVMVMELLGPSLEDLFNFCSRRFSLKTVLLLADQMISRIDYIHSRDFIHRDIKPDNFLMGLGKKGNLVYIIDFGLAKKFRDARSLKHIPYRENKNLTGTARYASINTHLGIEQSRRDDLESLGYVLMYFNLGALPWQGLKAANKRQKYERISEKKLSTSIVVLCKGFPSEFVNYLNFCRQMHFDQRPDYCHLRKLFRNLFHRLGFTYDYVFDWNLLKFGGPRNPQAIQQAQDGADGQAGHDAVAAAAAVAAAAAASSHQQQQHKVNAALGGGGGSRAQQQLQGGQTLAMLGGNGGGNGSQLIGGNGLNMDDSMAATNSSRPPYDTPERRPSIRMRQGGGGGGGGVGVGGMQSGGGGGGVGNAK
B3: recombinant wild-type hamster CK1ε with N-terminal S•Tag and His-Tag fusions, captured on S-protein agarose (protein)
chain: B1 chain with C178R

Key:
[1] = biological target: mouse PERIOD1 (mPER1), in vitro translated, 35S-methionine-labeled, O35973
[2] = biological target: mouse PERIOD2 (mPER2), in vitro translated, 35S-methionine-labeled, O54943
[3] = biological target: phosvitin (Sigma #P-1253)
[4] = biological target: PERIOD (PER) protein, Drosophila, expressed in S2 cells from hs-per, P07663
[5] = biological target: dephosphorylated α-casein (Sigma #C-8032)

Sequence of mouse PERIOD1 (mPER1), in vitro translated, 35S-methionine-labeled, O35973 (O35973 whole entry, looked up): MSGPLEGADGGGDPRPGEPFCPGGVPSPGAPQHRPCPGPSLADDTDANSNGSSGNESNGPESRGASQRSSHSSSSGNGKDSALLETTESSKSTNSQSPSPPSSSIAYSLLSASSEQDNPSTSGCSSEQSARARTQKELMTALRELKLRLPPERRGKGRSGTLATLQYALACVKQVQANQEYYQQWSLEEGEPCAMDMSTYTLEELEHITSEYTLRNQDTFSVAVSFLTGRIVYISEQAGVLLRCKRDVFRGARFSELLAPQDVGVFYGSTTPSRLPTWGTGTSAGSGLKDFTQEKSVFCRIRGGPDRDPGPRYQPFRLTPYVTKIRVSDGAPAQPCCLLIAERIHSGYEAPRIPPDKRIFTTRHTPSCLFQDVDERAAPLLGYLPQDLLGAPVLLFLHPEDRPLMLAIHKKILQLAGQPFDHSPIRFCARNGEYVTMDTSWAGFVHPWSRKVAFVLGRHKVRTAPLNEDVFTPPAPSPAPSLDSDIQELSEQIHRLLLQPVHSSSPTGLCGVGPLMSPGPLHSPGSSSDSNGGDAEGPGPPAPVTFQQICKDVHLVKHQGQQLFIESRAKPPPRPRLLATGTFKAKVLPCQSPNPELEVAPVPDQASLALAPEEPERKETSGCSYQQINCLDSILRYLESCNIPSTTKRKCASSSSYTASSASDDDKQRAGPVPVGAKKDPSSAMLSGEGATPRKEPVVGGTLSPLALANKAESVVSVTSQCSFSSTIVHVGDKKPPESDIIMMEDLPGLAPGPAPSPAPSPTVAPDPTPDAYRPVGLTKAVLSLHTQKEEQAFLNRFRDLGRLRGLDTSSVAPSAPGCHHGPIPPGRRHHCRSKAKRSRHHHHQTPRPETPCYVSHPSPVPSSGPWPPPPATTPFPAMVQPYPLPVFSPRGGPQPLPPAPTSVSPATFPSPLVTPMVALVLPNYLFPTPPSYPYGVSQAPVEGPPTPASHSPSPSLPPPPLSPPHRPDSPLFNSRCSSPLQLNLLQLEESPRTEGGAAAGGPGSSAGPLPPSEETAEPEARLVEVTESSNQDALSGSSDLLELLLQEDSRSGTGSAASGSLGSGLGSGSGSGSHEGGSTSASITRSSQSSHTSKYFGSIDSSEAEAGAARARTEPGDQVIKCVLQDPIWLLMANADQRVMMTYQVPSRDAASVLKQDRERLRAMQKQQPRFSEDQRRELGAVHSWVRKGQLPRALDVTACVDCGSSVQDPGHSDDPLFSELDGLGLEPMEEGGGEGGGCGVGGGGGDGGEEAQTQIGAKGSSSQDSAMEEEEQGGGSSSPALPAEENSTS
Sequence of mouse PERIOD2 (mPER2), in vitro translated, 35S-methionine-labeled, O54943 (O54943 whole entry, looked up): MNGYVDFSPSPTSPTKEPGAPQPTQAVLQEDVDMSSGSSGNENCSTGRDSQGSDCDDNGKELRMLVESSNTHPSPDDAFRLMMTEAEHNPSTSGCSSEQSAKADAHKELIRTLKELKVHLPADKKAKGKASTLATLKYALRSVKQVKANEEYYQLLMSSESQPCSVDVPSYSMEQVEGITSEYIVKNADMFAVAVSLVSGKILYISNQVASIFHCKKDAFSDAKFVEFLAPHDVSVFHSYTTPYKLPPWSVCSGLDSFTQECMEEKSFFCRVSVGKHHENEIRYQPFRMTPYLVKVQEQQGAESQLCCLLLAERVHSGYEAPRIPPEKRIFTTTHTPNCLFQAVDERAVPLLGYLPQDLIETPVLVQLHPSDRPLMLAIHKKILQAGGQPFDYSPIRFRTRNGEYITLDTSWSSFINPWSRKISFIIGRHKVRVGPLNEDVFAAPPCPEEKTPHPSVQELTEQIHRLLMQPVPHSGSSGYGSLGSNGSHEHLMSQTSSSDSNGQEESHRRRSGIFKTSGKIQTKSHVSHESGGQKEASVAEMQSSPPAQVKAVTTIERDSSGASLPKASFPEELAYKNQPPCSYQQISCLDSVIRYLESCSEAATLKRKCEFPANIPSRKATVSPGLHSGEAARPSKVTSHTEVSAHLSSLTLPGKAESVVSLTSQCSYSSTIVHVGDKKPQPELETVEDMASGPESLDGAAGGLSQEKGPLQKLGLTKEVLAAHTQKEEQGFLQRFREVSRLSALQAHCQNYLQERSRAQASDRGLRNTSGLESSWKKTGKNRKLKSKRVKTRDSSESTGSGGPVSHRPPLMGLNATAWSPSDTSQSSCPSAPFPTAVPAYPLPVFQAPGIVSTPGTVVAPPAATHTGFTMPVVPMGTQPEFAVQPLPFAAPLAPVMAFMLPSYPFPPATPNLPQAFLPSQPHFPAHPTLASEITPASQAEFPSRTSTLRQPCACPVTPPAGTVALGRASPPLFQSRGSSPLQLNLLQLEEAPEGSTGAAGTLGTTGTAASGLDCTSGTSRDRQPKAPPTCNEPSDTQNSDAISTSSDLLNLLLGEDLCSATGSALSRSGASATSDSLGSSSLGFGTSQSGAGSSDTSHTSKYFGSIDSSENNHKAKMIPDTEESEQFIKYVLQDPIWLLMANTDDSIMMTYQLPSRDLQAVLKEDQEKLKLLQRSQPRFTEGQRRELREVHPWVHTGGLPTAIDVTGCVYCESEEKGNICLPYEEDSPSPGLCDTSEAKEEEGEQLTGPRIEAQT

Protein	affinity kinase assay, phosphorylation of bound substrate [1]	affinity kinase assay, phosphorylation of bound substrate [2]	Km [3]	Vmax [3]	fold reduction in Vmax against wild-type [3]	phosphorylation of PER in vitro [4]	32P signal intensity of phosphorylated substrate, wild-type relative to tau enzyme [5]	32P signal intensity of phosphorylated substrate, wild-type relative to tau enzyme [3]
B1	there is a clear attenuation in phosphorylation of mPER1 and mPER2 by the tau mutant enzyme as compared to wild type CK1ε	there is a clear attenuation in phosphorylation of mPER1 and mPER2 by the tau mutant enzyme as compared to wild type CK1ε	a Km of 29.8 µM	a Vmax of 52.5 µmoles/µg/5 minutes	the tau mutation causes an eight-fold reduction in the Vmax of CK1ε			
B2						the formation of a PER/DBT complex leads to DBT-dependent phosphorylation of PER in vitro		
B3	this affinity kinase assay demonstrates that CK1ε phosphorylates mammalian PERIOD proteins	this affinity kinase assay demonstrates that CK1ε phosphorylates mammalian PERIOD proteins	the Km is 55.6 µM	the Vmax is 400 µmoles/µg/5 minutes			The wild-type CK1ε kinase produces an 8-fold and 4-fold greater signal intensity, for phosvitin and α-casein respectively, relative to that produced by the tau enzyme.	The wild-type CK1ε kinase produces an 8-fold and 4-fold greater signal intensity, for phosvitin and α-casein respectively, relative to that produced by the tau enzyme.
